Experimental data taken from patent US20240239881A1 (Innovent, published 2024).
Numbering of substitutions follows the chain as printed.

T1: Human ang2 protein (Sino Biological, Cat No.: 10691-H08H) (human, UniProt O15123 19-496)
T1 construct: Bought protein; also called recombinant hAng2; human hAng2
T1 sequence: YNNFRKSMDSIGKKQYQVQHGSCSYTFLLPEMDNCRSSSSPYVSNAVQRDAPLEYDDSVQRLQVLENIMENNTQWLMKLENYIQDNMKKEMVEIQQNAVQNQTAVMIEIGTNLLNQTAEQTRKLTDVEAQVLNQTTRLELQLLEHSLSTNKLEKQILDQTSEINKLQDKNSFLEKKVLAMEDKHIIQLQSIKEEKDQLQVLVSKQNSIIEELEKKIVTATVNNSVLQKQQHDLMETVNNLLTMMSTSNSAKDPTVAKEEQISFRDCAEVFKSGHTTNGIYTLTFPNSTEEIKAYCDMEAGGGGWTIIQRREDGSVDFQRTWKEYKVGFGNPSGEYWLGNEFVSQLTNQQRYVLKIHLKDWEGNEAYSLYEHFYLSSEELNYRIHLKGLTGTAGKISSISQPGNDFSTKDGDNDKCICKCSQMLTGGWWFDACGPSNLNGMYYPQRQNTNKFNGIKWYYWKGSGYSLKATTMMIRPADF

T2: recombinant biotinylated hAngiopoietin-2 protein (R&D, Cat. No.: BT623B/CF) (human, UniProt O15123 19-496, limits assumed, biotinylated (sites not given))
T2 construct: Bought protein; also called Biotin Ang2; human biotin Ang2 protein
T2 sequence: T1 sequence

T3: human Ang2 (human, UniProt O15123 19-496, limits assumed)
T3 construct: also called hAng2; h Ang2
T3 sequence: T1 sequence

T4: Human Ang1 (human, UniProt Q15389 20-498, limits assumed)
T4 construct: also called hAng1
T4 sequence (looked up): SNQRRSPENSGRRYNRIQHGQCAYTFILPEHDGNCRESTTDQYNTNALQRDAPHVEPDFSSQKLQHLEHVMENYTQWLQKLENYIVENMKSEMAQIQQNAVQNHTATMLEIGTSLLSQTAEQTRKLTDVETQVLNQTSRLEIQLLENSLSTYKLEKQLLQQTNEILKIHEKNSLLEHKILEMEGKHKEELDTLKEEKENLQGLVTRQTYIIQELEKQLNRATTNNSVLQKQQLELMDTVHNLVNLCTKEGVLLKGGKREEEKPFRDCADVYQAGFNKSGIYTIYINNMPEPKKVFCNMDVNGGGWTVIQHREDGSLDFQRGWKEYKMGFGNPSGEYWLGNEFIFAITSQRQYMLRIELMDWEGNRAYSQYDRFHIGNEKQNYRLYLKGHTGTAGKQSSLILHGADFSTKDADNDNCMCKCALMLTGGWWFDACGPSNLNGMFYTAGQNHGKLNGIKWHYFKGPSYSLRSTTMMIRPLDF

B1: parental murine hybridoma antibody of chimeric antibody 86E9 (antibody, V domains shown)
VH: EVMLVESGGGLVQPGGSMKLSCVASGFTFSNYWMNWVRQSPEKGLEWVAEIRLKSNNYATHYAESVKGRFTISRDVSKSGVYLQMNNLRTEDTGIYYCTDTAPFAYWGQGTLVTVSA
VL: DIVMTQSHKFLSTSVGARVSITCKASQDVGTDVAWYQQKPGQSPKLLIYWASTRHTGVPDRFTGSGSGTDFTLTISNVQSEDLSDYFCQQYSSYPLTFGGGTKLEIK
notes: Murine antibody from the hybridoma; also called 86E9 (murine hybridoma antibody)
B2: parental murine hybridoma antibody of chimeric antibody 107H7 (antibody, V domains shown)
VH: B1 VH
VL: B1 VL with S7T, H8P
notes: Murine antibody from the hybridoma; also called 107H7 (murine hybridoma antibody)
B3: parental murine hybridoma antibody of chimeric antibody 81H10 (antibody, V domains shown)
VH: B1 VH with M3K, V5E, G80S
VL: B1 VL with L11M, A17D
notes: Murine antibody from the hybridoma; also called 81H10 (murine hybridoma antibody)
B4: chimeric antibody 86E9 (antibody, human IgG1, kappa)
heavy: not shown
light: DIVMTQSHKFLSTSVGARVSITCKASQDVGTDVAWYQQKPGQSPKLLIYWASTRHTGVPDRFTGSGSGTDFTLTISNVQSEDLSDYFCQQYSSYPLTFGGGTKLEIKRTVAAPSVFIFPPSDEQLKSGTASVVCLLNNFYPREAKVQWKVDNALQSGNSQESVTEQDSKDSTYSLSSTLTLSKADYEKHKVYACEVTHQGLSSPVTKSFNRGEC
B5: chimeric antibody 107H7 (antibody, human IgG1, kappa)
heavy: not shown
light: B4 light with S7T, H8P
B6: chimeric antibody 81H10 (antibody, human IgG1, kappa, V domains shown)
VH: B1 VH with M3K, V5E, G80S
VL: DIVMTQSHKFMSTSVGDRVSITCKASQDVGTDVAWYQQKPGQSPKLLIYWASTRHTGVPDRFTGSGSGTDFTLTISNVQSEDLSDYFCQQYSSYPLTFGGGTKLEIKR
B7: affinity matured antibody Amhz81H10.4.30 (antibody, human IgG1, kappa, V domains shown)
VH: EVQLVESGGGLVKPGGSLRLSCAASGFTFRAAWMNWVRQAPGKGLEWVAEIRLKSNHYETHYAESVKGRFTISRDVSKNTVYLQMNSLKTEDTAVYYCTDTQPGAYWGQGTLVTVSS
VL: DIQMTQSPSSLSASVGDRVTITCKASQYVFTDVAWYQQKPGKAPKLLIYWASTRWTGVPSRFSGSGSGTDFTLTISSLQPEDFATYYCQQTSSYPLTFGGGTKVEIKR
B8: affinity matured antibody Amhz81H10.4.49 (antibody, human IgG1, kappa, V domains shown)
VH: B7 VH with R30Q, A31N, A32Y, M34A, H57N, E59A, Q102T, G104A
VL: B7 VL with Y28D, F30W, A51G, S92N, S93I
notes: also called Am81H10.4.49

The binders below were run against T1, Human ang2 protein (Sino Biological, …) (assay: ELISA: human ang2 protein (Sino Biological 10691-H08H) coated at 0.25 ug/ml, antibody titrated, HRP-conjugated secondary antibody, OD450-OD620, GraphPad fit).
Description: The binding of the respective parental murine hybridoma antibodies of the above exemplary chimeric antibodies 81H10, 86E9, and 107H7 to human hAng2 was measured in an ELISA-based assay.
Human ang2 protein (Sino Biological, Cat No.: 10691-H08H) was diluted to 0.25 μg/ml with PBS, and was coated onto a microtiter plate at 100 μl/well at 4° C. overnight. After three washes with PBST, the plate was blocked with 5% BSA. Gradient diluted antibodies (maximum concentration 20 nM, 1:2 serial dilution) were added to the microtiter plate and incubated for 2 h. After three washes with PBST, a 1:10000 dilution of anti-mouse IgG, HRP-conjugated antibody (Cell Signaling, Cat. No. 7076P2) was added, and after incubation for 60 min, the plate was washed six times with PBST. Chromogenic reaction was performed with 100 ul TMB and terminated with 100 ul 2N sulfuric acid. The reading of OD₄₅₀-OD₆₂₀ was taken by microplate reader. The concentration-dependent curve was fitted with GraphPad based on the OD₄₅₀-OD₆₂₀.

Row | Binder | EC50
1 | B1 | 0.434 nM
2 | B2 | 0.231 nM
3 | B3 | 0.248 nM

What follows are binders tested against T2, recombinant biotinylated … (assay: blocking ELISA: antibody titrated against biotinylated hAng2 (300 ng/ml final); blocked binding to coated hTie2 protein; Avidin-HRP detection).
Description: The abilities of 81H10, 86E9, 107H7, hz81H10.4, Amhz81H10.4.30, Amhz81H10.4.49, and the control antibodies Nesvacumab and faricimab to block the binding of human Ang2 to hTie2 were determined by ELISA. Faricimab is a bispecific antibody drug undergoing a clinical trial and developed by Roche, which targets both angiopoietin-2 (Ang-2) and VEGF-A.
Then the plate was blocked using 5% BSA for 1 h. The biotinylated antigen, recombinant biotinylated hAngiopoietin-2 protein (R&D, Cat. No.: BT623B/CF), was diluted to 600 ng/ml, and was added into the microtiter plate at 50 μl/well. The antibodies (81H10, 86E9, 107H7, hz81H10.4, Amhz81H10.4.30 and Amhz81H10.4.49) prepared as described above were gradiently diluted with a total of 8 or 12 dilution points starting from the highest concentration, and then added to the microtiter plate at 50 μl/well, and incubated in PBS on ice for 30 min. Then, 50 ul of antigen solution was added to the microtiter plate, in which the final antigen concentration was 300 ng/ml. The plate containing the antigen-antibody mixture was incubated for 90 min. After three washes with PBS, the supernatant was discarded, and Avidin-HRP (Invitrogen) diluted at 1:10000 was added at 100 μl/well, then incubated at room temperature for 30 min. PBS was used to wash the plate six times. Then TMB chromogen solution (solarbio) was added at 100 ul/well to allow for chromogenic reaction for 1 min, then the reaction was terminated with the addition of stop solution (solarbio) at 100 ul/well.

Row | Binder | IC50
4 | B4 | 5.29 nM
5 | B5 | 9.15 nM
6 | B6 | 1.32 nM
7 | B7 | 4.91 nM
8 | B8 | 0.506 nM

The binders below were run against T3, human Ang2 (assay: ForteBio BLI, antibody on AHQ sensor, 100 nM antigen, 1:1 model).
Description: (§1) The equilibrium dissociation constants (KD) of the above exemplary antibodies of the present invention binding to human Ang2 (h Ang2), cynomolgus monkey Ang2 (cAng2), murine Ang2 (mAng2), and human Ang1 (hAng1) were determined using the biological optical interferometry (ForteBio) assay.
(§2) The ForteBio affinity assay was performed according to the existing method (Estep, P et al., High throughput solution-based measurement of antibody-antigen affinity and epitope binning. MAbs, 2013.5 (2): p. 270-8). Briefly, the sensor was equilibrated in the assay buffer off-line for 30 min, followed by on-line detection for 60 s to establish the baseline. Then the purified antibodies obtained as described above were loaded on-line onto an AHQ sensor (ForteBio) for ForteBio affinity assay. The sensors with loaded antibodies were exposed to 100 nM of hAng2, cAng2, mAng2, and hAng1 antigens for 5 min, and then were transferred into the assay buffer for dissociation for 5 min to determine the dissociation rate. Kinetic analysis was performed using a 1:1 binding model.

Row | Binder | Kd
9 | B4 | 7.63 nM
10 | B5 | 7.75 nM
11 | B6 | 6.92 nM
12 | B7 | 23.2 nM
13 | B8 | 0.647 nM

Each binder was assayed against T2, recombinant biotinylated … (assay: ELISA: biotin Ang2 (R&D BT623B/CF) captured on coated streptavidin (SA), antibody titrated, anti-human IgG-HRP, OD450-OD620, GraphPad fit).
Description: The binding of 81H10 and hz81H10.4 of the present invention to human biotin Ang2 protein was measured in an SA-biotin Ang2-based ELISA assay.
SA protein (Thermo Fisher) was diluted to 1 μg/ml with PBS, and was coated onto a microtiter plate at 100 μl/well at 4° C. overnight. After three washes with PBST, the plate was blocked with 5% BSA for 1 h. Biotin Ang2 (R&D, Cat. No. BT623B/CF) was incubated at a concentration of 0.5 μg/ml for 1 h. Gradient diluted antibodies (maximum concentration 20 nM, 1:3 serial dilution) were added to the microtiter plate and incubated for 2 h, and the plate was washed three times with PBST. […] Then the plate was washed for 6 times with PBST. Chromogenic reaction was performed with 100 ul TMB and terminated with 100 ul 2N sulfuric acid. The reading of OD₄₅₀-OD₆₂₀ was taken by microplate reader. The concentration-dependent curve was fitted with GraphPad based on the OD₄₅₀-OD₆₂₀.

Row | Binder | EC50
14 | B6 | 0.0142 nM

Each binder was assayed against T4, Human Ang1 (assay: ForteBio BLI, antibody on AHQ sensor).
Description: as §1, §2

Row | Binder | binding result
15 | B4 | no binding (tested: 100 nM)
16 | B5 | no binding (tested: 100 nM)
17 | B6 | no binding (tested: 100 nM)
18 | B7 | no binding (tested: 100 nM)
19 | B8 | no binding (tested: 100 nM)
